Data taken from the supplement of paper PMC10899765.

These sequences were tested on MCF10A (assay: 5+ nucleoli phenotype percent effect (relative to siNT 0% and siKIF11 100%); higher = more cells with five or more nucleoli). Settings: 20 nM; 72 h.
Method: (§1)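 After 72 h, cells were fixed and stained with Hoechst and anti-fibrillarin, and nucleoli per nucleus were counted with CellProfiler. Values are plate-adjusted percent effect for the one-nucleolus and 5+ nucleoli phenotypes, normalised to siNT (0%) and to the positive controls siNOL11 or siKIF11 (100%), as the mean of biological triplicates. Percent viability is the nuclei count relative to siNT.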
“UGGCCCAACCUAUUCAGUUAGU [hsa-miR-3136-3p]” was tested, and the “5+ nucleoli phenotype percent effect” value was 34.8%.
In the case of “UGCCUCUUUUCCACGGCCUCAG [hsa-miR-6781-3p]”, the “5+ nucleoli phenotype percent effect” value is reported as 2.23%.
AGGUUGACAUACGUUUCCC [hsa-miR-563] was tested, and the “5+ nucleoli phenotype percent effect” value was 46.2%.
With AAAACCGUCUAGUUACAGUUGU [hsa-miR-1537] the “5+ nucleoli phenotype percent effect” value was 13.9%.
In the case of “GACUCACUCACAGGAUUGUGCA [hsa-miR-3680-5p]”, the “5+ nucleoli phenotype percent effect” value is reported as 39.7%.
For UGACCCACCCCUCUCCACCAG [hsa-miR-7114-3p], the “5+ nucleoli phenotype percent effect” value was -4.79%.
For GCGACCCACUCUUGGUUUCCA [hsa-miR-551a], the “5+ nucleoli phenotype percent effect” value was 39.1%.
For “CGCCUCUUCAGCGCUGUCUUCC [hsa-miR-2682-3p]”, the “5+ nucleoli phenotype percent effect” value was 24%.
AAAGGUGCUCAAAUUAGACAU [hsa-miR-4735-3p] was tested, and the “5+ nucleoli phenotype percent effect” value was -26.8%.
“UGGGAAAGACAAACUCAGAGUU [hsa-miR-6733-5p]” was tested, and the “5+ nucleoli phenotype percent effect” value was 8.82%.
With UGAGAACCACGUCUGCUCUGAG [hsa-miR-589-5p] the “5+ nucleoli phenotype percent effect” value was -4.96%.
CCCUGGGGUUCUGAGGACAUG [hsa-miR-6852-5p] was tested, and the “5+ nucleoli phenotype percent effect” value was 29%.
For “UGUUCAUUGGAACCCUGCGCAG [hsa-miR-6853-3p]”, the “5+ nucleoli phenotype percent effect” value was 29%.
UCUGGCAAGUAAAAAACUCUCAU [hsa-miR-3128] was tested, and the “5+ nucleoli phenotype percent effect” value was -13.6%.
With “UGGUUCUCUUGUGGCUCAAGCGU [hsa-miR-597-3p]” the “5+ nucleoli phenotype percent effect” value was -23%.
With UCAUUUUUGUGAUGUUGCAGCU [hsa-miR-153-5p] the “5+ nucleoli phenotype percent effect” value was 3.53%.
For UGAGGUAGGAGGUUGUAUAGUU [hsa-let-7e-5p], the “5+ nucleoli phenotype percent effect” value was 48.7%.
In the case of “UUGUGGGUGGGCAGAAGUCUGU [hsa-miR-6759-5p]”, the “5+ nucleoli phenotype percent effect” value is reported as -37.5%.
For “CAGUUCUGCUGUUCUGACUCUAG [hsa-miR-6874-3p]”, the “5+ nucleoli phenotype percent effect” value was -30.6%.
In the case of “UGAGGCUCUGUUAGCCUUGGCUC [hsa-miR-2467-5p]”, the “5+ nucleoli phenotype percent effect” value is reported as -10.9%.
“AAAAGUAACUAUGGUUUUUGCC [hsa-miR-548bb-5p]” was tested, and the “5+ nucleoli phenotype percent effect” value was 30.8%.
For “UCAGUGCAUCACAGAACUUUGU [hsa-miR-148b-3p]”, the “5+ nucleoli phenotype percent effect” value was 68.9%.
For “UGUUGUACUUUUUUUUUUGUUC [hsa-miR-3613-5p]”, the “5+ nucleoli phenotype percent effect” value was 4.98%.
In the case of “AGGGGACCAAAGAGAUAUAUAG [hsa-miR-3144-5p]”, the “5+ nucleoli phenotype percent effect” value is reported as 33.4%.
For AUUUGUGCUUGGCUCUGUCAC [hsa-miR-2113], the “5+ nucleoli phenotype percent effect” value was 9.63%.
With AACCCGUAGAUCCGAACUUGUG [hsa-miR-100-5p] the “5+ nucleoli phenotype percent effect” value was -0.958%.
With “UUUCCUGUCCUCCAACCAGACC [hsa-miR-7152-5p]” the “5+ nucleoli phenotype percent effect” value was -28.9%.
With UGCAAGACGGAUACUGUCAUCU [hsa-miR-4696] the “5+ nucleoli phenotype percent effect” value was -15.7%.
For CCGCUUUCUGAGCUGGAC [hsa-miR-4315], the “5+ nucleoli phenotype percent effect” value was -27.2%.
In the case of UCAGUUCCAGGCCAACCAGGCU [hsa-miR-584-3p], the “5+ nucleoli phenotype percent effect” value is reported as 3.58%.
In the case of AGAAGGGAAGAUGGUGAC [hsa-miR-7515], the “5+ nucleoli phenotype percent effect” value is reported as 4.41%.
With UGAGGUAGUAAGUUGUAUUGUU [hsa-miR-98-5p] the “5+ nucleoli phenotype percent effect” value was 44.8%.
With AGUAUGUUCUUCCAGGACAGAAC [hsa-miR-567] the “5+ nucleoli phenotype percent effect” value was 34.9%.
“GAGGUUUUCUGGGUUUCUGUUUC [hsa-miR-329-5p]” was tested, and the “5+ nucleoli phenotype percent effect” value was 17.3%.
ACCGUCUCUUCUGUUCCCCAG [hsa-miR-6827-3p] was tested, and the “5+ nucleoli phenotype percent effect” value was -12.7%.
For UGAGGGAGUGGGUGGGAGG [hsa-miR-6127], the “5+ nucleoli phenotype percent effect” value was -15.1%.
For “UAGGUAGAGUGUGAGGAGGAGGUC [hsa-miR-6831-5p]”, the “5+ nucleoli phenotype percent effect” value was 27.5%.
For UCCUGCCACCUCCUCCGCAG [hsa-miR-6727-3p], the “5+ nucleoli phenotype percent effect” value was -26.4%.
With “UAGGCAGUGUCAUUAGCUGAUUG [hsa-miR-34b-5p]” the “5+ nucleoli phenotype percent effect” value was -23.8%.
CUACAAAGGGAAGCCCUUUC [hsa-miR-520d-5p] was tested, and the “5+ nucleoli phenotype percent effect” value was -47.9%.
In the case of UGCCUCCUCCGUGGCCUCAG [hsa-miR-6829-3p], the “5+ nucleoli phenotype percent effect” value is reported as -1.77%.
For “AAGGCCCGGGCUUUCCUCCCAG [hsa-miR-4747-3p]”, the “5+ nucleoli phenotype percent effect” value was -14.1%.
In the case of CCAGUUUUCCCAGGAUU [hsa-miR-4328], the “5+ nucleoli phenotype percent effect” value is reported as 62.6%.
In the case of CAGCAGUGCGCAGGGCUG [hsa-miR-4519], the “5+ nucleoli phenotype percent effect” value is reported as 8.89%.
In the case of UGAGGUAGUAGUUUGUGCUGUU [hsa-let-7i-5p], the “5+ nucleoli phenotype percent effect” value is reported as 23.9%.
For “UUUCUUCUUAGACAUGGCAGCU [hsa-miR-4659b-3p]”, the “5+ nucleoli phenotype percent effect” value was -29.4%.
In the case of GAAAAUGAUGAGUAGUGACUGAUG [hsa-miR-3662], the “5+ nucleoli phenotype percent effect” value is reported as 57.8%.
With “CGCGCCUGCAGGAACUGGUAGA [hsa-miR-6720-3p]” the “5+ nucleoli phenotype percent effect” value was 71.3%.
In the case of UCCUUCAUUCCACCGGAGUCUG [hsa-miR-205-5p], the “5+ nucleoli phenotype percent effect” value is reported as -17.6%.
For “AUAGUGGGAAGCUGGCAGAUUC [hsa-miR-4727-3p]”, the “5+ nucleoli phenotype percent effect” value was -30.8%.
With “CUGACUGAAUAGGUAGGGUCAUU [hsa-miR-3136-5p]” the “5+ nucleoli phenotype percent effect” value was -32.9%.
In the case of AAGGAACCAGAAAAUGAGAAGU [hsa-miR-3914], the “5+ nucleoli phenotype percent effect” value is reported as 57.2%.
In the case of GGCGGAGGGAAGUAGGUCCGUUGGU [hsa-miR-658], the “5+ nucleoli phenotype percent effect” value is reported as 5.47%.
For “UAAUACUGCCUGGUAAUGAUGA [hsa-miR-200b-3p]”, the “5+ nucleoli phenotype percent effect” value was 93.4%.
UUACACAGCUGGACAGAGGCA [hsa-miR-4672] was tested, and the “5+ nucleoli phenotype percent effect” value was -34%.
“UUGAACUGUUAAGAACCACUGGA [hsa-miR-203b-3p]” was tested, and the “5+ nucleoli phenotype percent effect” value was -29.1%.
“CUGGGGGACGCGUGAGCGCGAGC [hsa-miR-4665-5p]” was tested, and the “5+ nucleoli phenotype percent effect” value was 9.32%.
For “UGCCUACUGAGCUGAAACACAG [hsa-miR-24-2-5p]”, the “5+ nucleoli phenotype percent effect” value was -9.36%.
In the case of “AGCUCCCUGAAUCCCUGUCCCAG [hsa-miR-7106-3p]”, the “5+ nucleoli phenotype percent effect” value is reported as 32.5%.

What follows are sequences tested on MCF10A (assay: percent viability (nuclei count relative to siNT); higher = more viable cells). Settings: 20 nM; 72 h.
Method: as §1
Work on “UGGCCCAACCUAUUCAGUUAGU [hsa-miR-3136-3p]” yielded a percent viability of 140%.
“UGCCUCUUUUCCACGGCCUCAG [hsa-miR-6781-3p]” showed a percent viability of 38.9%.
In the case of AGGUUGACAUACGUUUCCC [hsa-miR-563], the percent viability is reported as 70.5%.
Sequence AAAACCGUCUAGUUACAGUUGU [hsa-miR-1537] has a percent viability of 73.7%.
In the case of “GACUCACUCACAGGAUUGUGCA [hsa-miR-3680-5p]”, the percent viability is reported as 58.9%.
UGACCCACCCCUCUCCACCAG [hsa-miR-7114-3p] gave a percent viability of 35.3%.
Work on GCGACCCACUCUUGGUUUCCA [hsa-miR-551a] yielded a percent viability of 81.6%.
“CGCCUCUUCAGCGCUGUCUUCC [hsa-miR-2682-3p]” was tested, and the percent viability was 75.9%.
In the case of AAAGGUGCUCAAAUUAGACAU [hsa-miR-4735-3p], the percent viability is reported as 21.4%.
Work on “UGGGAAAGACAAACUCAGAGUU [hsa-miR-6733-5p]” yielded a percent viability of 23.6%.
Work on UGAGAACCACGUCUGCUCUGAG [hsa-miR-589-5p] yielded a percent viability of 88.9%.
Sequence CCCUGGGGUUCUGAGGACAUG [hsa-miR-6852-5p] has a percent viability of 32.3%.
Sequence “UGUUCAUUGGAACCCUGCGCAG [hsa-miR-6853-3p]” has a percent viability of 79.8%.
UCUGGCAAGUAAAAAACUCUCAU [hsa-miR-3128] showed a percent viability of 24.9%.
Sequence “UGGUUCUCUUGUGGCUCAAGCGU [hsa-miR-597-3p]” has a percent viability of 22.4%.
In the case of UCAUUUUUGUGAUGUUGCAGCU [hsa-miR-153-5p], the percent viability is reported as 55%.
Work on UGAGGUAGGAGGUUGUAUAGUU [hsa-let-7e-5p] yielded a percent viability of 23%.
For “UUGUGGGUGGGCAGAAGUCUGU [hsa-miR-6759-5p]”, the percent viability was 21.7%.
Work on “CAGUUCUGCUGUUCUGACUCUAG [hsa-miR-6874-3p]” yielded a percent viability of 28.9%.
In the case of “UGAGGCUCUGUUAGCCUUGGCUC [hsa-miR-2467-5p]”, the percent viability is reported as 29.8%.
“AAAAGUAACUAUGGUUUUUGCC [hsa-miR-548bb-5p]” gave a percent viability of 138%.
“UCAGUGCAUCACAGAACUUUGU [hsa-miR-148b-3p]” showed a percent viability of 126%.
Sequence “UGUUGUACUUUUUUUUUUGUUC [hsa-miR-3613-5p]” has a percent viability of 114%.
Sequence “AGGGGACCAAAGAGAUAUAUAG [hsa-miR-3144-5p]” has a percent viability of 38.1%.
With AUUUGUGCUUGGCUCUGUCAC [hsa-miR-2113] the percent viability was 98.6%.
AACCCGUAGAUCCGAACUUGUG [hsa-miR-100-5p] was tested, and the percent viability was 45.1%.
In the case of “UUUCCUGUCCUCCAACCAGACC [hsa-miR-7152-5p]”, the percent viability is reported as 26.5%.
UGCAAGACGGAUACUGUCAUCU [hsa-miR-4696] showed a percent viability of 92.5%.
Work on CCGCUUUCUGAGCUGGAC [hsa-miR-4315] yielded a percent viability of 25.2%.
